Laboratory results reported in patent US20170115291A1, “Activating JAK Kinase Biomarkers Predictive of Anti-Immune Checkpoint Inhibitor Response” (Dana-Farber Cancer Institute, Inc., priority 2014, published 2017).

What was measured:
[1] = Chemotherapy of the patient before MPDL3280A; format: in vivo, human; details: one patient, single cycle
Description: He then developed a perirectal abscess and was switched to dose-reduced carboplatin and pemetrexed, together with bevacizumab for three additional cycles and was transitioned to maintenance pemetrexed and bevacizumab.

[2] = test system: CD4+ T cells and CD8+ T cells; assay: T cell proliferation assay, monocytes from blood pre- and 1 h post-MPDL3280A infusion; format: cell-based, human; details: in the presence of circulating MPDL3280A (1 h post- vs pre-infusion), especially with monocytes primed with IFNγ
Method: PBMCs were isolated from patient blood samples immediately pre- and 1 h post-treatment with MPDL3280A, as well as from a normal donor by Ficoll and plated in a density of 4×10^6 cells/ml to a 96-well plate. After 2 h at 37° C. non-adherent cells (lymphocyte portion) were removed by pipetting and remaining adherent cells (monocyte portion) were cultured with or without 250 ng/ml IFNγ. At 24 h, non-adherent lymphocytes were labeled with CFSE. Monocytes (IFNγ treated or untreated) were harvested by 5 mM EDTA treatment and resuspended in fresh medium. Both lymphocytes and monocytes were then plated to a 96-well plate pre-coated with 10 μg/ml OKT3 antibody. Proliferation of CD4+ T cells and CD8+ T cells were monitored at 72 h post-stimulation by CSFE dilution.

PD-L1 = target: T1, PD-L1 (Homo sapiens, UniProt Q9NZQ7); assay: Phase 1 study of MPDL3280A in a patient with metastatic lung adenocarcinoma; format: in vivo
T1 construct: their tumor was also tested for PD-L1 expression and found to be positive; endogenous in cells; host or cells: tumour cells and immune cells (macrophages/monocytes) of a patient with metastatic lung adenocarcinoma
Method: The patient also consented to enroll on a phase 1 multicenter open-label dose-escalation study to evaluate the safety, tolerability, and pharmacokinetics of MPDL3280A (DF/HCC Protocol 11-314; NCT#01375842). […] As part of the inclusion criteria, their tumor was also tested for PD-L1 expression and found to be positive. The drug was administered as a single agent at a dose of 20 mg/kg every 3 weeks. […] Tumor response and evaluation was performed by physical examination and serial chest/abdomenipelvic CT scans, and target lesions were evaluated using RECIST criteria. Following treatment discontinuation at 1 year, the patient has continued to be monitored every 3 months by examination and CT scans.
Thus, after a temporary decline, the patient subsequently received sixteen cycles of MPDL3280A over a one-year period. […] They completed one year of therapy per protocol and remained without evidence of disease progression for an additional 12 months. At this point, they began to lose weight again and developed regrowth of the right adrenal mass (FIG. 1D), leading to re-initiation of MPDL3280A therapy.

[3] = one patient, sixteen cycles over one year

T1 sequence (Q9NZQ7 19-290): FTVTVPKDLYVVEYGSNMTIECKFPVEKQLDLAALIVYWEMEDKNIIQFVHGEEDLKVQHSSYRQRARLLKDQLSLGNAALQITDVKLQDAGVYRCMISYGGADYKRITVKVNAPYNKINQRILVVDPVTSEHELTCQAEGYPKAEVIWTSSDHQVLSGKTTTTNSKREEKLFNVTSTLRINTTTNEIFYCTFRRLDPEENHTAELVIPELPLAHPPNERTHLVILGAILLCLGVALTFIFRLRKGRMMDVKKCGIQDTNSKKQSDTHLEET

Time without evidence of disease progression after completing one year of therapy (PD-L1; off therapy) | Tumor response by RECIST criteria (PD-L1; one patient, 20 mg/kg every 3 weeks, sixteen cycles over a one-year period) | Size of the paratracheal mass on serial chest CT scans (PD-L1; one patient, FIG. 1 panel C) | Right adrenal lesion on restaging scans after re-initiation of therapy (PD-L1; one patient, after another 3 months of MPDL3280A) | Symptoms (PD-L1; [3]) | Substance | Tolerability [1] | T cell activation (proliferation of autologous or allogeneic CD4+/CD8+ T cells) [2] | Tolerability (PD-L1; one patient, 20 mg/kg every 3 weeks, 16 cycles) | Body weight (PD-L1; [3]) | Narcotic pain medication (PD-L1; [3])
 |  |  |  |  | carboplatin and paclitaxel | tolerated poorly |  |  |  | 
12 months | partial response | reduction in size | rapid improvement | complete resolutions of their symptoms | MPDL3280A: an engineered anti-PDL1 antibody (Genentech) |  | significantly greater | tolerated well other than a mild flare of their underlying chronic obstructive pulmonary disease | return to pre-diagnosis body weight | discontinuation of all narcotic pain medication
